For 10 molecules, Kd results are on record in patent US20230406886A1 (DAEGU GYEONGBUK INSTITUTE OF SCIENCE AND TECHNOLOGY, published 2023).

The Kd is the constant that tells how readily two partners part at equilibrium. Higher therefore signals weaker binding.

Positions count from the first letter of the chain named.

The chains are these.
B1: COVID-19 therapeutic protein CTP-γ1 (designed binder)
chain: MKASSLADNVYNTNITKENVQNMNEEQAKTFLDKFNHEAEDLFYQSSGLGKGDFR
B2: COVID-19 therapeutic protein CTP-γ2 (designed binder)
chain: B1 chain with A3E
B3: COVID-19 therapeutic protein CTP-γ3 (designed binder)
chain: B1 chain with S5E
B4: COVID-19 therapeutic protein CTP-α1 (designed binder)
chain: MKSELASNVYNTNITKENVQNMNEEQAKTFLDKFNHEAEDLFYQSSGLGKGDFR
B5: COVID-19 therapeutic protein CTP-α2 (designed binder)
chain: B4 chain with E4D
B6: COVID-19 therapeutic protein CTP-β3 (designed binder)
chain: B4 chain with K2E
B7: COVID-19 therapeutic protein CTP-α3 (designed binder)
chain: B4 chain with E4Q, S7E
B8: COVID-19 therapeutic protein CTP-β2 (designed binder)
chain: B4 chain with K2E, N8V, V9N, N21A, M22N, N23G
B9: COVID-19 therapeutic protein CTP-β1 (designed binder)
chain: B4 chain with N8V, V9N, N21A, M22N, N23G

This assay addresses SARS-CoV2 spike protein S1 receptor binding domain (RBD) (SARS-CoV2, UniProt P0DTC2 319-541).
In turn, B1 showed a dissociation constant (Kd) of 47.5 nM. To B2 belongs 42.8 nM; to B3, 39.2 nM. In turn, B4 showed an equilibrium dissociation constant (Kd) of 37.8 nM. The result for B5 reads 50.4 nM. B6: the Kd is 56.4 nM. Regarding B7, binding was put at a Kd of 35.7 nM. In turn, B8 registered a Kd of 42.9 nM. To B9 belongs 82 nM; to GEFADKLKNELAKTEEQAKTFLDKFNHEAEDLFYQSSGLGKGDFR (designed binder) [COVID-19 therapeutic protein CTP-δ1], 56.3 nM.
